For assay [1], the target named is T1, green fluorescent protein (UniProt P42212 2-238 = GFP). The experiment in a line: SPR. A general note: In SPR one partner is held on a chip, and binding of the other changes the refractive index at the surface.
The target of another assay is GFP-K162R. The experiment in a line: SPR.
A further assay deals with GFP-K131S. The experiment in a line: SPR.
Another assay addresses GFP-K140R. In words: SPR.
The target in the next assay is GFP-K41R. In words: SPR.
A further assay addresses GFP-K166R. In words: SPR.
Assay [2] addresses T1, green fluorescent protein. The experiment in a line: SPR. The source holds these as a separate data set.
Assay [3] has as its target T2, beta-2 microglobulin (UniProt P61769 21-119). In words: BLI. A general note: In BLI a coated tip is dipped into the sample, and binding shifts an interference pattern.
In assay [4] the target is T2, beta-2 microglobulin. In words: BLI. The source holds these as a separate data set.

T2 sequence (P61769 21-119): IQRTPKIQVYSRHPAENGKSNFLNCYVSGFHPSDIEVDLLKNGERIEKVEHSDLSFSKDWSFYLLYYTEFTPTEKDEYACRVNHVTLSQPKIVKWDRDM

B1: αGFP-S54C (VHH)
VHH: QVQLVESGGALVQPGGSLRLSCAASGFPVNRYSMRWYRQAPGKEREWVAGMSCAGDRSSYEDSVKGRFTISRDDARNTVYLQMNSLKPEDTAVYYCNVNVGFEYWGQGTQVTVSS
Broadly, the Kd is the constant that tells how readily two partners part at equilibrium. Low readings indicate a tighter complex, high ones a looser complex. The koff is the rate constant with which the complex falls apart. Turning to B1, the Kd in [1] came out at 1.11 nM; with GFP-K162R, 1.26 nM; with GFP-K131S, 1.16 nM; with GFP-K140R, 1.05 nM; with GFP-K41R, 1.16 nM; in the assay with GFP-K166R it was 1.11 nM. Moreover, the koff in the assay with GFP-K162R amounted to 0.000171 s⁻¹; with GFP-K131S, 0.000168 s⁻¹; with GFP-K140R it was 0.000169 s⁻¹; in the assay with GFP-K41R, 0.000174 s⁻¹; in the assay with GFP-K166R, 0.000175 s⁻¹; in [2] it was 0.000188 s⁻¹.

B2: nanobody 24 (VHH)
VHH: QVQLQESGGGSVQAGGSLRLSCAASGYTDSRYCMAWFRQAPGKEREWVARINSGRDITYYADSVKGRFTFSQDNAKNTVYLQMDSLEPEDTATYYCATDIPLRCRDIVAKGGDGFRYWGQGTQVTVSS
Regarding B2, the Kd with beta-2 microglobulin [3] amounted to 105 nM. This molecule also returned an off-rate (koff) with beta-2 microglobulin [4] of 0.018 s⁻¹.

For the origin of these results see PMC12395305 (2025).
